Assay results published in patent US20250197483A1 (US Dept. of Health and Human Services, published 2025).

Biological target: T1, FcRn/β2m heterodimer (UniProt P55899 24-297; P61769 21-119)
T1 construct: also called His-tagged FcRn/β2m; neonatal Fc receptor
Assay: BLI (Octet), pH 7.4: Ni-NTA biosensors coated with His-tagged FcRn/β2m dipped into wells with the antibody as analyte
Description: Fc-FcRn binding kinetics by bio-layer interferometry. We used Octet HTX system (ForteBio) to measure the Fc-FcRn binding kinetics with FcRn/2m as ligand. […] For reference, we repeated the entire steps mentioned above but with blank Ni-NTA biosensors. Binding kinetic sensograms were globally fitted with 1:1 model and double referencing to extract kinetic parameters.

T1 sequence (P55899 24-297 limits assumed, chain 1 of 2): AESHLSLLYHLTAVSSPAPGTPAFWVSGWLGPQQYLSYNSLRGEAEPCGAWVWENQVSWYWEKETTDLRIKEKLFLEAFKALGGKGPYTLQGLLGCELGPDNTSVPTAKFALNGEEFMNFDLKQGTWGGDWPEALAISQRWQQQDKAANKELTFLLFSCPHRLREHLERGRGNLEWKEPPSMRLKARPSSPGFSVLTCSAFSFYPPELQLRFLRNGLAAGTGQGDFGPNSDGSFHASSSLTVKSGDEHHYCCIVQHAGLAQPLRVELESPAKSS
T1 sequence (P61769 21-119 limits assumed, chain 2 of 2): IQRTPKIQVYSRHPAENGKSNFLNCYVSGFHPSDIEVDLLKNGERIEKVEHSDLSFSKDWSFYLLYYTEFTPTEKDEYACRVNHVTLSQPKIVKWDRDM

Binder | Kd
VRC07-523LS.v1 (antibody, human IgG1, kappa) heavy: not shown light: LTQSPGTLSLSPGETAIISCRTSQYGSLAWYQQRPGQAPRLVIYSGSTRAAGIPDRFSGSRWGPDYNLTISNLESGDFGVYYCQQYEFFGQGTKVQVDIKRTVAAPSVFIFPPSDEQLKSGTASVVCLLNNFYPREAKVQWKVDNALQSGNSQESVTEQDSKDSTYSLSSTLTLSKADYEKHKVYACEVTHQGLSSPVTKSFNRGEC | 0.93 µM
VRC07-523LS.v34 (antibody, human IgG1, kappa) heavy: not shown light: LTQSPGTLSLSPGETAIISCETSQYGSLAWYQQRPGQAPRLVIYSGSTRAAGIPDRFSGSRWGPDYNLTISNLESGDFGVYYCQQYEFFGQGTKVQVDIKRTVAAPSVFIFPPSDEQLKSGTASVVCLLNNFYPREAKVQWKVDNALQSGNSQESVTEQDSKDSTYSLSSTLTLSKADYEKHKVYACEVTHQGLSSPVTKSFNRGEC | 6 µM
VRC07-523LS.v11 (antibody, human IgG1, kappa) heavy: not shown light: LTQSPGTLSLSPGETAIISCDTSQYGSLAWYQQRPGQAPRLVIYSGSTRAAGIPDRFSGSRWGPDYNLTISNLESGDFGVYYCQQYEFFGQGTKVQVDIKRTVAAPSVFIFPPSDEQLKSGTASVVCLLNNFYPREAKVQWKVDNALQSGNSQESVTEQDSKDSTYSLSSTLTLSKADYEKHKVYACEVTHQGLSSPVTKSFNRGEC | 3.96 µM
